Data taken from the supplement of paper PMC10567573.

B1: GAGE1 (parent)
chain: RPRRYVQPPEMIGPMRPEQFSDEV

Variants of: B1
Experiment: protein stability index of a GFP-peptide fusion (GPS, HEK-293T) (PSI 1-6); higher = more stable
Conditions: c terminus: a fixed tail appended
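Note: lentivirally expressed fusions sorted by FACS into six bins by GFP to DsRed ratio, PSI derived from sequencing read proportions per bin multiplied by bin number.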

Going from RPRRYVQPPEKIGPMRPEQFSDEV [M11K] to RPRRYVQPPERIGPMRPEQFSDEV [M11R], the protein stability index rises from 4.15 to 4.22.

Going from RPRRYVQPPEPIGPMRPEQFSDEV [M11P] to RPRRYVQPPEEIGPMRPEQFSDEV [M11E], the protein stability index falls from 4.53 to 3.88.

Going from RPRRYVQPPENIGPMRPEQFSDEV [M11N] to RPRRYVQPPECIGPMRPEQFSDEV [M11C], the protein stability index rises from 3.38 to 3.56.

First: RPRRYVQPPEYIGPMRPEQFSDEV [M11Y]
Second: RPRRYVQPPEWIGPMRPEQFSDEV [M11W]
The protein stability index of the first is lower: 3.82 for the first, 3.91 for the second.

First: RPRRYVQPPEDIGPMRPEQFSDEV [M11D]
Second: RPRRYVQPPEQIGPMRPEQFSDEV [M11Q]
The protein stability index of the first is lower: 3.53 for the first, 3.84 for the second.

Compared with RPRRYVQPPEIIGPMRPEQFSDEV [M11I], RPRRYVQPPEVIGPMRPEQFSDEV [M11V] is higher in protein stability index: 3.38 for the first, 3.46 for the second.

Going from RPRRYVQPPELIGPMRPEQFSDEV [M11L] to RPRRYVQPPEAIGPMRPEQFSDEV [M11A], the protein stability index rises from 3.4 to 4.34.

First: RPRRYVQPPETIGPMRPEQFSDEV [M11T]
Second: RPRRYVQPPEGIGPMRPEQFSDEV [M11G]
The protein stability index of the first is lower: 3.74 for the first, 4.44 for the second.

First: RPRRYVQPPEFIGPMRPEQFSDEV [M11F]
Second: RPRRYVQPPESIGPMRPEQFSDEV [M11S]
The protein stability index of the first is higher: 4.05 for the first, 3.54 for the second.

First: RPRRYVQPPEHIGPMRPEQFSDEV [M11H]
Second: RPRRYEQPPEMIGPMRPEQFSDEV [V6E]
The protein stability index of the first is higher: 4.37 for the first, 3.92 for the second.

First: RPRRYTQPPEMIGPMRPEQFSDEV [V6T]
Second: RPRRYHQPPEMIGPMRPEQFSDEV [V6H]
The protein stability index of the first is lower: 3.66 for the first, 3.69 for the second.

RPRRYQQPPEMIGPMRPEQFSDEV [V6Q] and RPRRYMQPPEMIGPMRPEQFSDEV [V6M] are the same in protein stability index: 3.59 for the first, 3.59 for the second.

Going from RPRRYCQPPEMIGPMRPEQFSDEV [V6C] to RPRRYDQPPEMIGPMRPEQFSDEV [V6D], the protein stability index rises from 3.63 to 4.34.

Compared with RPRRYNQPPEMIGPMRPEQFSDEV [V6N], RPRRYIQPPEMIGPMRPEQFSDEV [V6I] is higher in protein stability index: 3.9 for the first, 3.94 for the second.

Going from RPRRYFQPPEMIGPMRPEQFSDEV [V6F] to RPRRYPQPPEMIGPMRPEQFSDEV [V6P], the protein stability index rises from 3.39 to 4.06.

First: RPRRYSQPPEMIGPMRPEQFSDEV [V6S]
Second: RPRRYRQPPEMIGPMRPEQFSDEV [V6R]
The protein stability index of the first is higher: 4.17 for the first, 3.6 for the second.

Going from RPRRYWQPPEMIGPMRPEQFSDEV [V6W] to RPRRYAQPPEMIGPMRPEQFSDEV [V6A], the protein stability index rises from 3.18 to 3.3.

Compared with RPRRYLQPPEMIGPMRPEQFSDEV [V6L], RPRRYKQPPEMIGPMRPEQFSDEV [V6K] is higher in protein stability index: 3.69 for the first, 3.83 for the second.

Going from RPRRYYQPPEMIGPMRPEQFSDEV [V6Y] to RPRRYGQPPEMIGPMRPEQFSDEV [V6G], the protein stability index rises from 3.01 to 4.18.

First: RPRTYVQPPEMIGPMRPEQFSDEV [R4T]
Second: RPRDYVQPPEMIGPMRPEQFSDEV [R4D]
The protein stability index of the first is lower: 3.98 for the first, 4.46 for the second.

Going from RPREYVQPPEMIGPMRPEQFSDEV [R4E] to RPRFYVQPPEMIGPMRPEQFSDEV [R4F], the protein stability index falls from 3.92 to 3.88.

Going from RPRYYVQPPEMIGPMRPEQFSDEV [R4Y] to RPRMYVQPPEMIGPMRPEQFSDEV [R4M], the protein stability index rises from 3.79 to 4.07.

Compared with RPRPYVQPPEMIGPMRPEQFSDEV [R4P], RPRAYVQPPEMIGPMRPEQFSDEV [R4A] is lower in protein stability index: 4.11 for the first, 3.94 for the second.

Going from RPRIYVQPPEMIGPMRPEQFSDEV [R4I] to RPRCYVQPPEMIGPMRPEQFSDEV [R4C], the protein stability index rises from 3.43 to 3.64.

First: RPRVYVQPPEMIGPMRPEQFSDEV [R4V]
Second: RPRGYVQPPEMIGPMRPEQFSDEV [R4G]
The protein stability index of the first is lower: 3.89 for the first, 4.12 for the second.

Compared with RPRWYVQPPEMIGPMRPEQFSDEV [R4W], RPRHYVQPPEMIGPMRPEQFSDEV [R4H] is higher in protein stability index: 3.09 for the first, 3.43 for the second.

Compared with RPRLYVQPPEMIGPMRPEQFSDEV [R4L], RPRSYVQPPEMIGPMRPEQFSDEV [R4S] is higher in protein stability index: 4.04 for the first, 4.05 for the second.

First: RPRKYVQPPEMIGPMRPEQFSDEV [R4K]
Second: RPRNYVQPPEMIGPMRPEQFSDEV [R4N]
The protein stability index of the first is lower: 3.69 for the first, 3.72 for the second.

Compared with RPRQYVQPPEMIGPMRPEQFSDEV [R4Q], RPRRYVQPPEMIEPMRPEQFSDEV [G13E] is lower in protein stability index: 4.66 for the first, 3.95 for the second.

Going from RPRRYVQPPEMICPMRPEQFSDEV [G13C] to RPRRYVQPPEMIHPMRPEQFSDEV [G13H], the protein stability index rises from 3.96 to 4.07.

Compared with RPRRYVQPPEMIDPMRPEQFSDEV [G13D], RPRRYVQPPEMIFPMRPEQFSDEV [G13F] is lower in protein stability index: 4.63 for the first, 3.8 for the second.

Going from RPRRYVQPPEMIAPMRPEQFSDEV [G13A] to RPRRYVQPPEMIIPMRPEQFSDEV [G13I], the protein stability index falls from 4.21 to 3.25.

First: RPRRYVQPPKMIGPMRPEQFSDEV [E10K]
Second: RPRRYVQPPMMIGPMRPEQFSDEV [E10M]
The protein stability index of the first is higher: 4.48 for the first, 4 for the second.

First: RPRRYVQPPAMIGPMRPEQFSDEV [E10A]
Second: RPRRYVQPPVMIGPMRPEQFSDEV [E10V]
The protein stability index of the first is higher: 4.15 for the first, 3.99 for the second.

Compared with RPRRYVQPPIMIGPMRPEQFSDEV [E10I], RPRRYVQPPGMIGPMRPEQFSDEV [E10G] is higher in protein stability index: 3.69 for the first, 4.16 for the second.

Compared with RPRRYVQPPQMIGPMRPEQFSDEV [E10Q], RPRRYVQPPWMIGPMRPEQFSDEV [E10W] is lower in protein stability index: 3.69 for the first, 3.56 for the second.

Compared with RPRRYVQPPDMIGPMRPEQFSDEV [E10D], RPRRYVQPPCMIGPMRPEQFSDEV [E10C] is lower in protein stability index: 4.51 for the first, 3.13 for the second.

First: RPRRYVQPPNMIGPMRPEQFSDEV [E10N]
Second: RPRRYVQPPPMIGPMRPEQFSDEV [E10P]
The protein stability index of the first is lower: 3.97 for the first, 4.25 for the second.

Going from RPRRYVQPPSMIGPMRPEQFSDEV [E10S] to RPRRYVQPPHMIGPMRPEQFSDEV [E10H], the protein stability index rises from 4.08 to 4.32.

Compared with RPRRYVQPPTMIGPMRPEQFSDEV [E10T], RPRRYVQPPRMIGPMRPEQFSDEV [E10R] is higher in protein stability index: 4.33 for the first, 4.39 for the second.

First: RPRRYVQPPLMIGPMRPEQFSDEV [E10L]
Second: RPRRYVQPPYMIGPMRPEQFSDEV [E10Y]
The protein stability index of the first is higher: 3.39 for the first, 3.18 for the second.

Going from RPRRYVQPPFMIGPMRPEQFSDEV [E10F] to RPRRYVQHPEMIGPMRPEQFSDEV [P8H], the protein stability index rises from 3.88 to 4.18.

Compared with RPRRYVQEPEMIGPMRPEQFSDEV [P8E], RPRRYVQAPEMIGPMRPEQFSDEV [P8A] is lower in protein stability index: 4.54 for the first, 3.71 for the second.

Going from RPRRYVQSPEMIGPMRPEQFSDEV [P8S] to RPRRYVQWPEMIGPMRPEQFSDEV [P8W], the protein stability index falls from 4.36 to 3.09.

Compared with RPRRYVQIPEMIGPMRPEQFSDEV [P8I], RPRRYVQLPEMIGPMRPEQFSDEV [P8L] is higher in protein stability index: 3.27 for the first, 3.31 for the second.

First: RPRRYVQRPEMIGPMRPEQFSDEV [P8R]
Second: RPRRYVQQPEMIGPMRPEQFSDEV [P8Q]
The protein stability index of the first is higher: 3.93 for the first, 3.37 for the second.

First: RPRRYVQTPEMIGPMRPEQFSDEV [P8T]
Second: RPRRYVQVPEMIGPMRPEQFSDEV [P8V]
The protein stability index of the first is higher: 4.12 for the first, 3.5 for the second.
